Reference: article PMC4575180 (2015)

Biological target: T1, syntaxin3 (Rattus norvegicus (Rat), UniProt Q08849)
T1 chain: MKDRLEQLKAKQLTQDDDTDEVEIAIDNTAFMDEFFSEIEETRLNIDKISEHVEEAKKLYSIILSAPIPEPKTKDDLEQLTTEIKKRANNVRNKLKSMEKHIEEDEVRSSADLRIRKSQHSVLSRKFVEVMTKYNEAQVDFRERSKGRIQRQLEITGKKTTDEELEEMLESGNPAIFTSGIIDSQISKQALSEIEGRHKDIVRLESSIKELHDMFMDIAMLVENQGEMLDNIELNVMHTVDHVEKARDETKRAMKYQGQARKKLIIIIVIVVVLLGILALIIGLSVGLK
Experiment: pull-down

- binding result: no binding
B1: Munc18c (protein)
chain: MAPPVSERGLKSVVWRKIKTAVFDDCRKEGEWKIMLLDEFTTKLLSSCCKMTDLLEEGITVIENIYKNREPVRQMKALYFISPTPKSVDCFLRDFGSKSEKKYKAAYIYFTDFCPDSLFNKIKASCSKSIRRCKEINISFIPQESQVYTLDVPDAFYYCYSPDPSNASRKEVVMEAMAEQIVTVCATLDENPGVRYKSKPLDNASKLAQLVEKKLEDYYKIDEKGLIKGKTQSQLLIIDRGFDPVSTVLHELTFQAMAYDLLPIENDTYKYKTDGKEKEAVLEEDDDLWVRVRHRHIAVVLEEIPKLMKEISSTKKATEGKTSLSALTQLMKKMPHFRKQISKQVVHLNLAEDCMNKFKLNIEKLCKTEQDLALGTDAEGQRVKDSMLVLLPVLLNKNHDNCDKIRAVLLYIFGINGTTEENLDRLIHNVKIEDDSDMIRNWSHLGVPIVPPSQQAKPLRKDRSAEETFQLSRWTPFIKDIMEDAIDNRLDSKEWPYCSRCPAVWNGSGAVSARQKPRTNYLELDRKNGSRLIIFVIGGITYSEMRCAYEVSQAHKSCEVIIGSTHILTPRKLLDDIKMLNKSKDKVSFKDE
